For two molecules, EC50 results are on record in paper PMC8390317 (Experimental Animals, 2021).

Numbering of substitutions follows the chain as printed.

The target in the assay is recombinant B7-H4 protein (Phe29 to Ala258) (Homo sapiens, UniProt Q7Z7D3). Briefly: ELISA.
Chain of recombinant B7-H4 protein (Phe29 to Ala258) (Q7Z7D3 29-258): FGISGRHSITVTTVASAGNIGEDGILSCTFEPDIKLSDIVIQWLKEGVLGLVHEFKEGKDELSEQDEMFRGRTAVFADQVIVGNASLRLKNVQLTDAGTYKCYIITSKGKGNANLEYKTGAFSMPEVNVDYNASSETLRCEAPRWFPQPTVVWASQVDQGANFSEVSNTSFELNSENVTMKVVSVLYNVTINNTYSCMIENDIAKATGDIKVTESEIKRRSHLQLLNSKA

B1: anti-B7-H4 scFv S2 (scFv, V domains shown)
VH: AVTLDESGGGLQTPGGGLSLVCKASGFTFSSYGMGWMRQVPGKGLEYVAVIDAGSGTWYATAVKGRATISRDNGQSTVRLQLNNLRAEDTATYYCAKSANAGAPDGAWIDAWGHGTEVIVSS
VL: LTQPSSVSANLGGTVEITCSGGSGGYGWFQQKSPGSAPVTLIYNNNKRPSDIPSRFSGSKSGSTATLTITGVRAEDEAVYYCGGWDSIDSGIFGAGTTLTVL
On to B1, for which the 50% effective concentration (EC50) is ~22 nM.

B2: anti-B7-H4 scFv S4 (scFv, V domains shown)
VH: B1 VH with G17A
VL: LTQPSSVSANLGETVKITCSGGSYSYGWYQQKSPGSAPVTVIYDNNKRPSDIPSRFSGSKSGSTGTLTITGVQAEDEAIYYCGSRDSNTGYAAFGAGTTLTVL
Take B2: the EC50 was ~33 nM.
